Measured values from patent US20210196796A1 (SYNTHEKINE, published 2021).

T1: orthogonal hCD122 receptor (hoRb), hCD122 with H133D and Y134F (human, UniProt P14784 27-550)
T1 sequence: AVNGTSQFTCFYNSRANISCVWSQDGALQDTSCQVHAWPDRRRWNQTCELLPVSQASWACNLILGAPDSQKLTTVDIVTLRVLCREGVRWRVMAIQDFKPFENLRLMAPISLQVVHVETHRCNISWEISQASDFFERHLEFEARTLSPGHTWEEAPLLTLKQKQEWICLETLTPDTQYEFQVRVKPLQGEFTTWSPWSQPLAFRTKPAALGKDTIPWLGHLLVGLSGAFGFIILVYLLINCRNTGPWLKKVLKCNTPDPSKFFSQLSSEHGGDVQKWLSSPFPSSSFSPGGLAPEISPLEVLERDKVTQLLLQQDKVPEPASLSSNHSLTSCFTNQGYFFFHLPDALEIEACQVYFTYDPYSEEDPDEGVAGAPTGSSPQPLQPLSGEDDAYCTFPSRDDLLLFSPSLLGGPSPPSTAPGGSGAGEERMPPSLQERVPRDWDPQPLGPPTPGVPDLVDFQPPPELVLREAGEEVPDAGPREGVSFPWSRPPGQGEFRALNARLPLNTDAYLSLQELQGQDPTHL


How the values were obtained:
[1] = target: T1, orthogonal hCD122 receptor (hoRb), …; experiment: cell-based or functional assay
[2] = target: T1, orthogonal hCD122 receptor (hoRb), …; experiment: cell-based or functional assay; remark: listed apart in the source
Throughout, for Relative Proliferation Fold Change 3F8 1:10: reference of the scale not given here.
Throughout, for Relative Proliferation Fold Change 3F8 1:2: reference of the scale not given here.
Throughout, for Relative Proliferation Fold Change 3F8 1:50: reference of the scale not given here.
Throughout, for Relative Proliferation Fold Change NKL 1:10: reference of the scale not given here.
Throughout, for Relative Proliferation Fold Change NKL 1:2: reference of the scale not given here.
Throughout, for Relative Proliferation Fold Change NKL 1:50: reference of the scale not given here.

Row | Binder | NKL Ortho Proliferation Signal 1:2 [1] | NKL Ortho Proliferation Signal 1:10 [1] | NKL Ortho Proliferation Signal 1:50 [1] | Relative Proliferation Fold Change NKL 1:2 [1] [fold] | Relative Proliferation Fold Change NKL 1:10 [1] [fold] | Relative Proliferation Fold Change NKL 1:50 [1] [fold] | 3F8 Ortho Proliferation Signal 1:2 [2] [cts/min] | 3F8 Ortho Proliferation Signal 1:10 [2] [cts/min] | 3F8 Ortho Proliferation Signal 1:50 [2] [cts/min] | Relative Proliferation Fold Change 3F8 1:2 [2] [fold] | Relative Proliferation Fold Change 3F8 1:10 [2] [fold] | Relative Proliferation Fold Change 3F8 1:50 [2] [fold]
1 | Q13W SQVLKA (ligand) APTSSSTKKTQLWLSQLLVLLKAILNGINNYKNPKLTRMLTFKFYMPKKATELKHLQCLEEELKPLEEVLNLAQSKNFHLRPRDLISNINVIVLELKGSETTFMCEYADETATIVEFLNRWITFCQSIISTLT | 13700 | 12900 | 8730 | 1.24 | 0.84 | 0.63 | 27000 | 16900 | 6420 | 148 | 22.2 | 10.9
2 | G27S, SQVLKA (ligand) APTSSSTKKTQLQLSQLLVLLKAILNSINNYKNPKLTRMLTFKFYMPKKATELKHLQCLEEELKPLEEVLNLAQSKNFHLRPRDLISNINVIVLELKGSETTFMCEYADETATIVEFLNRWITFCQSIISTLT | 48900 | 41000 | 20700 | 4.21 | 2.94 | 1.53 | 40200 | 34700 | 15200 | 94 | 33 | 24.6
3 | M39V, SQVLKA (ligand) APTSSSTKKTQLQLSQLLVLLKAILNGINNYKNPKLTRVLTFKFYMPKKATELKHLQCLEEELKPLEEVLNLAQSKNFHLRPRDLISNINVIVLELKGSETTFMCEYADETATIVEFLNRWITFCQSIISTLT | 42800 | 31300 | 15300 | 2.72 | 1.85 | 0.92 | 29200 | 22900 | 9630 | 110 | 51.3 | 16.7
4 | G27K, SQVLKA (ligand) APTSSSTKKTQLQLSQLLVLLKAILNKINNYKNPKLTRMLTFKFYMPKKATELKHLQCLEEELKPLEEVLNLAQSKNFHLRPRDLISNINVIVLELKGSETTFMCEYADETATIVEFLNRWITFCQSIISTLT | 36300 | 30600 | 15200 | 2.93 | 1.94 | 1.03 | 37800 | 23700 | 10300 | 170 | 47.9 | 7.82
5 | M39L, SQVLKA (ligand) APTSSSTKKTQLQLSQLLVLLKAILNGINNYKNPKLTRLLTFKFYMPKKATELKHLQCLEEELKPLEEVLNLAQSKNFHLRPRDLISNINVIVLELKGSETTFMCEYADETATIVEFLNRWITFCQSIISTLT | 57600 | 44100 | 21800 | 4.47 | 2.84 | 1.49 | 31200 | 24600 | 12200 | 179 | 76.7 | 37.1
6 | R38G, SQVLKA (ligand) APTSSSTKKTQLQLSQLLVLLKAILNGINNYKNPKLTGMLTFKFYMPKKATELKHLQCLEEELKPLEEVLNLAQSKNFHLRPRDLISNINVIVLELKGSETTFMCEYADETATIVEFLNRWITFCQSIISTLT | 20100 | 18100 | 9740 | 1.78 | 1.19 | 0.67 | 27200 | 32100 | 14200 | 47.5 | 21.6 | 8.42
7 | F42K, SQVLKA (ligand) APTSSSTKKTQLQLSQLLVLLKAILNGINNYKNPKLTRMLTKKFYMPKKATELKHLQCLEEELKPLEEVLNLAQSKNFHLRPRDLISNINVIVLELKGSETTFMCEYADETATIVEFLNRWITFCQSIISTLT | 11900 | 10500 | 8730 | 0.83 | 0.6 | 0.52 | 10300 | 5760 | 1570 | 43.5 | 12.7 | 2.2
8 | R38W, SQVLKA (ligand) APTSSSTKKTQLQLSQLLVLLKAILNGINNYKNPKLTWMLTFKFYMPKKATELKHLQCLEEELKPLEEVLNLAQSKNFHLRPRDLISNINVIVLELKGSETTFMCEYADETATIVEFLNRWITFCQSIISTLT | 36700 | 23800 | 11500 | 2.74 | 1.51 | 0.77 | 40400 | 41100 | 24200 | 94.4 | 57.3 | 21.4

Further lines, results first:

Row | NKL Ortho Proliferation Signal 1:2 [1] | NKL Ortho Proliferation Signal 1:10 [1] | NKL Ortho Proliferation Signal 1:50 [1] | Relative Proliferation Fold Change NKL 1:2 [1] [fold] | Relative Proliferation Fold Change NKL 1:10 [1] [fold] | Relative Proliferation Fold Change NKL 1:50 [1] [fold] | 3F8 Ortho Proliferation Signal 1:2 [2] [cts/min] | 3F8 Ortho Proliferation Signal 1:10 [2] [cts/min] | 3F8 Ortho Proliferation Signal 1:50 [2] [cts/min] | Relative Proliferation Fold Change 3F8 1:2 [2] [fold] | Relative Proliferation Fold Change 3F8 1:10 [2] [fold] | Relative Proliferation Fold Change 3F8 1:50 [2] [fold] | Binder
9 | 46600 | 31400 | 14600 | 3.29 | 2.05 | 1.04 | 28400 | 21900 | 6730 | 105 | 30.4 | 10.2 | ΔG27, SQVLKA (ligand) APTSSSTKKTQLQLSQLLVLLKAILNINNYKNPKLTRMLTFKFYMPKKATELKHLQCLEEELKPLEEVLNLAQSKNFHLRPRDLISNINVIVLELKGSETTFMCEYADETATIVEFLNRWITFCQSIISTLT
10 | 12100 | 10100 | 7780 | 1 | 0.71 | 0.58 | 9940 | 7070 | 1060 | 59.1 | 8.73 | 2.17 | ΔT51, SQVLKA (ligand) APTSSSTKKTQLQLSQLLVLLKAILNGINNYKNPKLTRMLTFKFYMPKKAELKHLQCLEEELKPLEEVLNLAQSKNFHLRPRDLISNINVIVLELKGSETTFMCEYADETATIVEFLNRWITFCQSIISTLT
11 | 61400 | 63400 | 33400 | 4.68 | 4.52 | 2.5 | 46400 | 54400 | 28500 | 22.9 | 54.9 | 37.8 | SQVLKT (ligand) APTSSSTKKTQLQLSQLLVLLKTILNGINNYKNPKLTRMLTFKFYMPKKATELKHLQCLEEELKPLEEVLNLAQSKNFHLRPRDLISNINVIVLELKGSETTFMCEYADETATIVEFLNRWITFCQSIISTLT
12 | 50800 | 37900 | 18500 | 3.57 | 2.64 | 1.4 | 31900 | 20200 | 11600 | 111 | 43.1 | 15.6 | T51I, SQVLKA (ligand) APTSSSTKKTQLQLSQLLVLLKAILNGINNYKNPKLTRMLTFKFYMPKKAIELKHLQCLEEELKPLEEVLNLAQSKNFHLRPRDLISNINVIVLELKGSETTFMCEYADETATIVEFLNRWITFCQSIISTLT
